Measurements published in publication PMC3527473, “The C-Terminus of ClpC1 of Mycobacterium tuberculosis Is Crucial for Its Oligomerization and Function” (PLoS ONE, 2012).

Molecular target: the molecule itself
Assay: SEC; Superdex-200 (1×30 cm) in buffer A (50 mM Tris-HCl pH 7.6, 100 mM KCl, 5 mM DTT, 10% glycerol, 0.01% Triton X-100) with 15 mM ATP and 10 mM MgCl2; protein pre-incubated with 15 mM ATP and 10 mM MgCl2 for 30 min at 25°C; monomer to hexamer; fractions checked by SDS-PAGE

B1: ClpC1-Δ3 (N-terminal truncated mutant, both N-terminal domains deleted) (domain or fragment)
chain: REGEGVAAQVLVKLGAELTRVRQQVIQLLSGYQGKEAAEAGTGGRGGESGSPSTSLVLDQFGRNLTAAAMEGKLDPVIGREKEIERVMQVLSRRTKNNPVLIGEPGVGKTAVVEGLAQAIVHGEVPETLKDKQLYTLDLGSLVAGSRYRGDFEERLKKVLKEINTRGDIILFIDELHTLVGAGAAEGAIDAASILKPKLARGELQTIGATTLDEYRKYIEKDAALERRFQPVQVGEPTVEHTIEILKGLRDRYEAHHRVSITDAAMVAAATLADRYINDRFLPDKAIDLIDEAGARMRIRRMTAPPDLREFDEKIAEARREKESAIDAQDFEKAASLRDREKTLVAQRAEREKQWRSGDLDVVAEVDDEQIAEVLGNWTGIPVFKLTEAETTRLLRMEEELHKRIIGQEDAVKAVSKAIRRTRAGLKDPKRPSGSFIFAGPSGVGKTELSKALANFLFGDDDALIQIDMGEFHDRFTASRLFGAPPGYVGYEEGGQLTEKVRRKPFSVVLFDEIEKAHQEIYNSLLQVLEDGRLTDGQGRTVDFKNTVLIFTSNLGTSDISKPVGLGFSKGGGENDYERMKQKVNDELKKHFRPEFLNRIDDIIVFHQLTREEIIRMVDLMISRVAGQLKSKDMALVLTDAAKALLAKRGFDPVLGARPLRRTIQREIEDQLSEKILFEEVGPGQVVTVDVDNWDGEGPGEDAVFTFTGTRKPPAEPDLAKAGAHSAGGPEPAAR
binding result: binds
